Assay [1] concerns the target soluble portion of the transferrin receptor expressed as a recombinant entity (UniProt P02786).
Assay [2] concerns the target sTFR with 5-hydroxytryptophan substituted for Trp (UniProt P02786).

Chain of soluble portion of the transferrin receptor expressed as a recombinant entity (P02786 122-760): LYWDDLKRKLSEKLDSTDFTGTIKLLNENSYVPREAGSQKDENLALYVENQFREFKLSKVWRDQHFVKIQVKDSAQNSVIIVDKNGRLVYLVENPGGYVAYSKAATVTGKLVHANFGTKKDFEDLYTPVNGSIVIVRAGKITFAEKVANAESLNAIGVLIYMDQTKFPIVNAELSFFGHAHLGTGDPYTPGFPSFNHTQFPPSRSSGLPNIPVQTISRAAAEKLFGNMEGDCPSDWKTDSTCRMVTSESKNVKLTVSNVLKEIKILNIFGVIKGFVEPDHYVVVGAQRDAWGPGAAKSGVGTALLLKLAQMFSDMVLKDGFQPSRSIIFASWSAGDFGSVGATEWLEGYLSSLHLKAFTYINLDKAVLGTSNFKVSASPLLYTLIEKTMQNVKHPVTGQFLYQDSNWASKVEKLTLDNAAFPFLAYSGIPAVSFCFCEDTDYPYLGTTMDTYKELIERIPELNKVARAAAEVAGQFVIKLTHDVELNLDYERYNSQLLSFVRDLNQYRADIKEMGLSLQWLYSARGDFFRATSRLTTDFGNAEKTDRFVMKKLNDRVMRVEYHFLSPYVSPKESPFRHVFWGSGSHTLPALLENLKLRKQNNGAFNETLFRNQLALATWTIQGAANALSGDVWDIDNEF

Consider “FeC hTF with 5-hydroxytryptophan substituted for Trp (from UniProt P02787 20-698) (ligand)”, for which, in assay [1], the k (obsC1) of iron release from the complex at pH 5.6, excitation 280 nm was 25.8 min^-1; the k (obsC1) of iron release from the complex at pH 5.6, excitation 315 nm came to 14.1 min^-1; the k (obsC2) of iron release from the complex at pH 5.6, excitation 280 nm was 8.3 min^-1; the k (obsC2) of iron release from the complex at pH 5.6, excitation 315 nm was found to be 2.8 min^-1. In assay [2], this substance displayed a k (obsC1) of iron release from the complex at pH 5.6, excitation 280 nm of 18.1 min^-1; a k (obsC1) of iron release from the complex at pH 5.6, excitation 315 nm of 22.4 min^-1; a k (obsC2) of iron release from the complex at pH 5.6, excitation 280 nm of 4 min^-1; a k (obsC2) of iron release from the complex at pH 5.6, excitation 315 nm of 3.4 min^-1.

The record behind these values is paper PMC2637931.
